Residue numbers refer to the chain shown, from its start. Values belong to the binder of their own block, whether it stands above or below them.
Experiments:
[1] = target: T1, SE1 peptide of human ANGPTL8 (amino acids 25-60) (human); assay: BIACORE (SPR), antibody from hybridoma supernatant captured by anti-mouse Fc, peptide injected, 25 C
T1 construct: also called hSE1; hSE1 peptide
T1 peptide: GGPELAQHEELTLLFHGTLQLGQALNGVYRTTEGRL
Protocol: (§1) The binding affinities of antibodies 1E5, 1A8, and 1E9 to human ANGPTL8 were measured using a BIACORE system (GE Healthcare LifeSciences). Briefly, anti-mouse Fc antibody (Sigma-Aldrich) was immobilized on all four flow cells of a CM5 chip using amine coupling reagents (GE Healthcare LifeSciences). Antibody from hybridoma supernatants were captured on flow cells 2, 3, and 4 using flow cell 1 as a reference. The SE1 peptide of human ANGPTL8 (hSE1; SEQ ID NO:6), a corresponding SE1 peptide of cynomolgus monkey ANGPTL8 (cSE1; SEQ ID NO:67), or human ANGPTL8 was injected at a flow rate of 50 μL/min at 25° C. Kinetic data were collected over time and fit using the simultaneous global fit equation to yield affinity constants (KD values) for each antibody.
(§2) Assay results are shown in Table 4 and the BIACORE result for 1E5 binding to hANGPTL8 (NusA-hANGPTL8 fusion protein) is shown in FIG. 4.

[2] = target: T2, SE1 peptide of cynomolgus monkey ANGPTL8 (amino acids 25-60) (cynomolgus monkey); assay: as above
T2 construct: also called cSE1; cSE1 peptide
T2 peptide: T1 peptide with G2S, Q7E, R30K
Protocol: as §1, §2

[3] = target: T3, NusA-hANGPTL8 fusion protein (human, UniProt Q6UXH0 22-198); assay: BIACORE (SPR), antibody from hybridoma supernatant captured by anti-mouse Fc, NusA-hANGPTL8 injected, 25 C
T3 construct: Expressed in E. coli BL21 and captured on a chelating Sepharose column; also called hANGPTL8 (NusA-hANGPTL8 fusion protein); not shown: bacterial NusA protein, fusion partner
T3 sequence: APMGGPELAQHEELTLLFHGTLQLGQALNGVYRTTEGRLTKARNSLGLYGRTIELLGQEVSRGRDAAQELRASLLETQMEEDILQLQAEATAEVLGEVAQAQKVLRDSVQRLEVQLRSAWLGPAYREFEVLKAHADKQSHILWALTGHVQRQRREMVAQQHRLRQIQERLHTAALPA
Protocol: as §1, §2

[4] = target: T1, SE1 peptide of human ANGPTL8 (amino …); assay: BIACORE (SPR); chimeric 1E5 (murine variable regions, human Fc)
[5] = target: T1, SE1 peptide of human ANGPTL8 (amino …); assay: BIACORE (SPR); humanized antibody Hz1E5

Kd [4]: 0.35 nM
B4: chimeric 1E5 antibody (antibody, V domains shown)
VH: QVQLQQSGAELVKPGTSVRLSCKASGYTFTDYTIHWVKLRSGQGLEWIGWFYPGSDNIKYNAKFKDKATLTADKSSSTVYMDLGRLTSEDSAVYFCARHEAFSYYDVAWFAYWGQGTLVTVSA
VL: DVVMTQTPLSLPVSLGDQASISCRSSQSLVHSNGNTYLHWYLQKPGQSPKLLIYTVSNRFSGVPDRFSGSGSGSDFTLNFSRVEAEDLGVYFCSQTTHFPYTFGGGTKLEIK
notes: Contains 'the murine variable regions of 1E5 and a human Fc region'; also called chimeric antibody 1E5

Kd [5]: 0.9 nM
B5: humanized anti-ANGPTL8 antibody Hz1E5 (antibody, human IgG1, kappa, V domains shown)
VH: EVQLVQSGAEVKKPGSSVKVSCKASGYTFTDYTIHWVRQAPGQGLEWMGWFYPGSDNIKYNAKFKDRATLTADKSTSTAYMELSSLRSEDTAVYYCARHEAFSYYDVAWFAYWGQGTLVTVSS
VL: DVVMTQTPLSLPVTPGEPASISCRSSQSLVHSNGNTYLHWYLQKPGQSPQLLIYTVSNRFSGVPDRFSGSGSGSDFTLKISRVEAEDVGVYFCSQTTHFPYTFGQGTKVEIKR
notes: also called Hz1E5.A1

The next lines start with the binder.

B1: anti-ANGPTL8 antibody 1E5 (antibody, V domains shown)
VH: B4 VH
VL: B4 VL
notes: Mouse monoclonal antibody, tested from hybridoma supernatant and captured by anti-mouse Fc; also called parental 1E5 from hybridoma
Kd [1]: 0.41 nM
Kd [2]: 0.67 nM
Kd [3]: 0.44 nM

B2: anti-ANGPTL8 antibody 1E9 (antibody, V domains shown)
VH: QVQLQQSGTELVKPGASVKLSCKASGYTFTDYTIHWVKQRSGQGLEWIGWFYPGSDNIKFNAKFRDKATLTADKSSSTVYMELSRLTSEDSAVYFCARHEAFYVYDVAWFANWGQGTLVTVST
VL: B4 VL with Y41F, K50N, S74T, N79K, F80I, E86G, T96S
notes: Mouse monoclonal antibody, tested from hybridoma supernatant and captured by anti-mouse Fc
Kd [1]: 0.92 nM
Kd [2]: 1.8 nM
Kd [3]: 2.1 nM

B3: anti-ANGPTL8 antibody 1A8 (antibody, V domains shown)
VH: B2 VH with T9A, F60Y, A62E, R65K, T78I, F102Y, N112Y, T123A
VL: B4 VL with R24S, Y37F, Y41F, K44R, S74T, N79K, F80I, T96S, K108T
notes: as for B2
Kd [1]: 0.8 nM
Kd [2]: 1.04 nM
Kd [3]: 2.5 nM

Source: patent US20210095014A1 (NGM BIOPHARMACEUTICALS, published 2021)
